These results are taken from the supplement of paper PMC7125110.

± gives the standard error. Fewer inactive variants are shown than the library holds.

Sequences and labels used below:
B1: glmS ribozyme (parent)
chain: AUAAAAGCGCCAGAACUACAGAAAUGUAGUUGACGAGGAGGAGGUUUAUCGAAUUUUCGGCGGAUGCCUCCAAA

The variants in the data set derive from B1. The data set can be described thus: self-cleavage kobs at 10000 uM GlcN6P; higher = faster cleavage; RNA array. The settings on record: with glucosamine-6-phosphate. The method, boiled down: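 kcat and KM were obtained from weighted Michaelis–Menten fits across concentrations of kobs values. Those came from one- or two-exponential decay fits to per-tile medians normalised to baseline and to non-cleaving reference variants. The variants were barcoded ribozymes transcribed in situ by E. coli RNA polymerase on sequenced MiSeq chips and tracked through a hybridised Cy3 probe at 37 °C, with 40 μM to 10 mM glucosamine-6-phosphate in HEPES/KCl/Mg(OAc)2 buffer flowed in.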
With AUAAAAGCGCCAGAACUACAGAAAUGUAGUGGACGAGCACGAGGUUUAUCGAAUUUUCGCCGGAUGCCACAAAA [U31G G38C G40C G60C U69A C71A], the “self-cleavage kobs at 10000 uM GlcN6P” value is < 1e-05 s⁻¹.

As to AUAAAAGCGCCAGACGUACAGAAAUGUAGUUGACGAGGAGGAGGUUUAUCGAAUUAUCGGGGGAUGCCUCCAAA [A15C C16G U56A C61G], the “self-cleavage kobs at 10000 uM GlcN6P” value is < 1e-05 s⁻¹.

For AUAAAAGCGUCAGAACUACAGAAAUGUAGUUGUCGACGAGGAGGUUUAUCGAUUUUACGGCGGGUGCCUCCAAA [C10U A33U G37C A53U U57A A64G], the “self-cleavage kobs at 10000 uM GlcN6P” value is < 1e-05 s⁻¹.

As for AUAAAAGCGCCAGAACUACAGAAAUGUAGUUGACGAGGAGGGGGUUUAUCGAAUUUUAGGCGGAUGUCUCCAAA [A42G C58A C67U], the “self-cleavage kobs at 10000 uM GlcN6P” value is 0.00012 ± 1.9e-05 s⁻¹.

On to AUAAAAGCGCCUGAACUACAGAAAUGUAGUUGACGAGGAUGAGGUUUAUCGAAAUUUCGGCGGAUGCCUCCAAA [A12U G40U U54A], for which the “self-cleavage kobs at 10000 uM GlcN6P” value stood at 0.000861 ± 0.00024 s⁻¹.

As for AUAAAAGCGCCAGAACUACAGAAAUGUAGUUGACAAGGAGGAGGUUUAUCGAAGUUUCGGCCGAUGCCUCCAAA [G35A U54G G62C], the “self-cleavage kobs at 10000 uM GlcN6P” value was < 1e-05 s⁻¹.

Regarding AUAAAAGCACCAGAACUACAGAAAUGUAGUUGACGAGGAGGAGGUUUAUCGAGUUUUCGGCGGAUGCCUCCAAA [G9A A53G], the “self-cleavage kobs at 10000 uM GlcN6P” value was determined as 3.28e-05 ± 1.3e-05 s⁻¹.

In the case of AUAAAAGCGCCAGAACUACAGAAAUGUAGUUGACGGGGAUGAGGUUUAUCGAAUUUUCGGCGGAUGCAUCCAAA [A36G G40U C68A], the “self-cleavage kobs at 10000 uM GlcN6P” value was < 1e-05 s⁻¹.

Turning to AUAAAAGCGCCAGAACUACAGAAAUGUAGUUGACGUGGAAGACGUUUAUCGGAUUUUCGGCGGAUGCCUCCAAA [A36U G40A G43C A52G], the “self-cleavage kobs at 10000 uM GlcN6P” value was determined as 0.00106 ± 0.00036 s⁻¹.

Take AUAAAAGCGCCAUAACUACAGAAAUGUAGUUGACGAGGAGGAGGUUUAUCGAAAUCUCGGCGGAUGCCUCCAAA [G13U U54A U56C]: the “self-cleavage kobs at 10000 uM GlcN6P” value turned out to be 0.000163 ± 3.3e-05 s⁻¹.

For the variant AUAAAAGCGCCAGAACUACAGAAAUGUAGUUCACGUGGAGGAGGUUUAUCGAAUUUUCGGCGGAUGCCGACAAA [G32C A36U U69G C70A], the “self-cleavage kobs at 10000 uM GlcN6P” value amounted to 0.000103 ± 2.4e-05 s⁻¹.

Consider AUAAAAGCGCCAGGACUACAGAAAUGUAGUUGACGAGGAGGAUGUUAAUCGAAUUUUAGGCGGAUGACUCCAAA [A14G G43U U47A C58A C67A], for which the “self-cleavage kobs at 10000 uM GlcN6P” value was 7.13e-05 ± 1.3e-05 s⁻¹.

For AUAAAAUCGCCAGAACUACAGAAAUGUAGUUGACGAGGAGGAGGUUUAUCGAAUUUUCGGUGGAUGCCUACAAA [G7U C61U C70A], the “self-cleavage kobs at 10000 uM GlcN6P” value is < 1e-05 s⁻¹.

With AUAAAAGCGCCUGAACUACAGAAAUGUAGUUGACGAGGAGGAGGUUUAUGGAAUUUUCGGCAGAUGCCUCUAAA [A12U C50G G62A C71U], the “self-cleavage kobs at 10000 uM GlcN6P” value turned out to be 8.18e-05 ± 2.2e-05 s⁻¹.

For AUAAAAGCGCCAGAACUACAGAAAUGUAGUUGACGAGGAGGAGGUUUUUGGAAUUUUCGGCGGAUGCCUCCAAA [A48U C50G], the “self-cleavage kobs at 10000 uM GlcN6P” value is < 1e-05 s⁻¹.

For the variant AUAAAAGCGCCAGAACUACAGAAAUGUAGUUGACGUGGAGGAGGUUUAACGAAUUUUCGGCGGAUGCCUCCAAA [A36U U49A], the “self-cleavage kobs at 10000 uM GlcN6P” value came out at 8.19e-05 ± 9.1e-06 s⁻¹.

For AUAAAAGCGCCAGAAUUACAGAAAUGUACUUGACUAGGGGGAGGUUUAUCGAAUUUUCGGCGGAUGCCUCCAAA [C16U G29C G35U A39G], the “self-cleavage kobs at 10000 uM GlcN6P” value was < 1e-05 s⁻¹.

In the case of AUAAAAGCGCCAGAACUACAGAAAUGUAUUUGACGAGGAAGAGGUUUAUCGCAUUUUCGGCGGAUGACUCCAAA [G29U G40A A52C C67A], the “self-cleavage kobs at 10000 uM GlcN6P” value is < 1e-05 s⁻¹.

Consider AUAAAAGCGCCAGAACUACAGAAAUGUAGUUGACGAGGAGGAGGUUUCUCGAAUUUUCGGCGGAUGCCUCGAAA [A48C C71G], for which the “self-cleavage kobs at 10000 uM GlcN6P” value amounted to 2.78e-05 ± 8.9e-06 s⁻¹.

For AUAAAAGCGCCAGAACUACAGAAAUGUAGUUGACGAGGAGGAGGUUUAUUGAUUUUUCCGCGGAAGCCUCCAAA [C50U A53U G59C U65A], the “self-cleavage kobs at 10000 uM GlcN6P” value was < 1e-05 s⁻¹.

Take AUAAAAGCGCCAGAACUACAGAAAUGUAGACGACGAGGAGGAGGUUUAUCGAGUUUUCGGCGGAUGCCUCCAAA [U30A U31C A53G]: the “self-cleavage kobs at 10000 uM GlcN6P” value worked out at 0.00407 ± 0.0007 s⁻¹.

Take AUAAAACCUCCAGGACUACAGAAAUGUAGUUGACGAGGAGGAGGUUUAUCGAAUUUUCGGCGGAUGCCUCCAAA [G7C G9U A14G]: the “self-cleavage kobs at 10000 uM GlcN6P” value is < 1e-05 s⁻¹.

For AUAAAAGCGCCCUAACUACAGAAAUGUAGUUGACGAGGAGGAGGUUAAUCGAAUUAUCGGCGGAUGCCUCCAAA [A12C G13U U47A U56A], the “self-cleavage kobs at 10000 uM GlcN6P” value is 4.59e-05 ± 1.6e-05 s⁻¹.

AUAAAAUCGCCAGAACUACAGAAAUGUACUUGACGAGGAGGAGGUUUGUGGAAUUUUCGGCGGAUGCCUCAAAA [G7U G29C A48G C50G C71A]: the “self-cleavage kobs at 10000 uM GlcN6P” value was found to be 0.00097 ± 0.00047 s⁻¹.

Take AUAAAAGCGCGAGAACUACAGAAAUGUAGUUGACGAGGAGGUGGUUUAUGGAAUUUUCGGCGGAUGUCUCCAAA [C11G A42U C50G C67U]: the “self-cleavage kobs at 10000 uM GlcN6P” value stood at 0.000569 ± 0.00021 s⁻¹.

On to AUAAAAGCGCCAGAACUACAGAAAUGUAGUUGACGAGGAGGAGGUUUAUCGAAUUUCAGGCGGAUGCCUUCAAA [U57C C58A C70U], for which the “self-cleavage kobs at 10000 uM GlcN6P” value worked out at 3.37e-05 ± 1.7e-05 s⁻¹.

For the variant AUAAACGCCCCAGAACUACAGAAAUGUAGUUGACGAGGAGGAGGUUUAUAGAAUUUUAGGCGGUUGCCUGCAAA [A6C G9C C50A C58A A64U C70G], the “self-cleavage kobs at 10000 uM GlcN6P” value is < 1e-05 s⁻¹.

AUAAACGCGCCAGAACUACAGAAAUGUAGUUGACGAGGAGGAGGUUUAUCGAAUUUUCAGCGGAUACCUCCAAA [A6C G59A G66A]: the “self-cleavage kobs at 10000 uM GlcN6P” value is < 1e-05 s⁻¹.

With AUAAAAGCGCCAGAAGUACAGAAAUGUAGUUGACGAGGAGGAGGUUAAUCGAAUUUUCGGGGGAUGCCUCCAAA [C16G U47A C61G], the “self-cleavage kobs at 10000 uM GlcN6P” value is < 1e-05 s⁻¹.

With AUAAACGCGCCAGAAUUACAGAAAUGUACUUGACGAGGAGGAGGUUUAUCGAAUUUUAGGCGGAUGCCUCCAAA [A6C C16U G29C C58A], the “self-cleavage kobs at 10000 uM GlcN6P” value was < 1e-05 s⁻¹.

Consider AUAAAAGCGCCGGAACUACAGAAAUGUAGGUGACGAGGAGGAGGUUUAUCGAUUUUUCGGCGGAUGCCUCCAAA [A12G U30G A53U], for which the “self-cleavage kobs at 10000 uM GlcN6P” value came out at 9.4e-05 ± 2e-05 s⁻¹.

For the variant AUAAAAGCGCCAGAACUACAGAAAUGUAGUUUACGAGGAGGAGGUUUAUCGAGUUUUCGGCGGAUGGCUCCAAA [G32U A53G C67G], the “self-cleavage kobs at 10000 uM GlcN6P” value was 0.000238 ± 3.8e-05 s⁻¹.

For AUAAAAGCGCCAGCACUACAGAAAUGUAGUUGACGAGGUGGAGGUUUAUCGAAUUUUCGGCGGAUGGCUCCAAA [A14C A39U C67G], the “self-cleavage kobs at 10000 uM GlcN6P” value is 0.000928 ± 0.00017 s⁻¹.

Take AUAAAAGCGCCAGAACUACAGAAAUGUAGUUGACGAGGACGAGGUUUAUCCAAUUUACGGCGGAUGCCUCCAAA [G40C G51C U57A]: the “self-cleavage kobs at 10000 uM GlcN6P” value was < 1e-05 s⁻¹.

In the case of AUAAAAGCGCCAGAACUACAGAAAUGUAGUUGACGAGGAGGAGGUUUAUCGAAUUUUCGACGGAUGCUUUCAAA [G60A C68U C70U], the “self-cleavage kobs at 10000 uM GlcN6P” value is < 1e-05 s⁻¹.

AUAAAAGCGCGAGAACUACAGAAAUGUAGUUGGCGAGGAUGAGGUUUAUCGAAUUUUCGGCGGAUGCCUUCAAA [C11G A33G G40U C70U]: the “self-cleavage kobs at 10000 uM GlcN6P” value was < 1e-05 s⁻¹.

Take AUAAAAGCGCCAGAACUACAGAAAUGUAGUUGACGAGGAGGAGGUAGAUCGAAUUUUCGGCGGAUCCCUCCAAA [U46A U47G G66C]: the “self-cleavage kobs at 10000 uM GlcN6P” value was found to be 0.000401 ± 9.3e-05 s⁻¹.
